Experimental data as given in US20080274112A1, “Nogo Receptor Antagonists” (priority 2003, published 2008).
“Also recorded” adds a separate entry of the source.

Assays:
[1] = target: T1, sNogoR344-Fc (residues 26-344 of rat Nogo receptor-1) (Rattus norvegicus, UniProt Q99M75, A303T/C287S/C43R/E284G/T53A); assay: Inhibition of 125I-Nogo66 binding to sNogoR344-Fc on SPA beads; settings: curve-fit
T1 construct: amino acid residues 26-344 of rat Nogo receptor-1; made in house
T1 sequence (Q99M75 26-344 C43R/T53A/E284G/C287S/A303T): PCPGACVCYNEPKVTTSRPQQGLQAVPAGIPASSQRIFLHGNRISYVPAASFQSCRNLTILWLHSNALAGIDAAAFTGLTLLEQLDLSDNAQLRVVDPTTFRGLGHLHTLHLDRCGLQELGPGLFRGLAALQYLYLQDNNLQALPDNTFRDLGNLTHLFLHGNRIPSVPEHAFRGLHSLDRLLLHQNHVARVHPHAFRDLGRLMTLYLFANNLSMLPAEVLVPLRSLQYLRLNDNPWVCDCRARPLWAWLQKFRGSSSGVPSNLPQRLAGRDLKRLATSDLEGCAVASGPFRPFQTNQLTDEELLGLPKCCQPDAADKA
Description: (§1) 0.5 μg of a soluble Nogo receptor-1 fusion protein comprising amino acid residues 26-344 of rat Nogo receptor-1 and the hinge and Fc region of the rat IgG1 molecule (sNogoR344-Fc) produced as described below was immobilized on 250 μg of protein-A- or wheatgerm agglutinin-conjugated SPA beads (Amersham Pharmacia Biotech) for 2 hours at 25° C. SPA beads coupled with Fc-sNogoR-1, anti-Nogo receptor-1 mAb and 1 μl ^125I-Nogo66 (Amersham, 2000 Ci/mmol, 1 nM) in 50 μl of the HEPES-buffered incubation medium (10 mM HEPES, pH 7.4, 0.1% bovine serum albumin, 0.1% ovalbumin, 2 mM MgCl2, 2 mM CaCl2 and protease inhibitors) was added to each sample well. After 16 hours, radioactivity was measured in quadruplicate samples using a TopCount® (Packard). IC50 values were calculated from a curve-fit analysis (FIG. 3) (PRISM, GraphPad Software, NJ). In some experiments, we also used AP-ligand conjugates (e.g. AP-Nogo66) and detected binding by monitoring alkaline phosphatase activity. We also assayed the ability of the mAbs to block binding of the ligands MAG-Fc and AP-OM-gp to Nogo receptor-1.

Nogo66 + sNogoR344-Fc = target: T2, Nogo66 + sNogoR344-Fc (Rattus norvegicus, UniProt Q99M75, A303T/C287S/C43R/E284G/T53A); assay: mAb/Fab inhibition of Nogo66 binding to sNogoR344-Fc (ELISA)
T2 construct: amino acid residues 26-344 of rat Nogo receptor-1; made in house
T2 sequence (Q99M75 26-344 C43R/T53A/E284G/C287S/A303T): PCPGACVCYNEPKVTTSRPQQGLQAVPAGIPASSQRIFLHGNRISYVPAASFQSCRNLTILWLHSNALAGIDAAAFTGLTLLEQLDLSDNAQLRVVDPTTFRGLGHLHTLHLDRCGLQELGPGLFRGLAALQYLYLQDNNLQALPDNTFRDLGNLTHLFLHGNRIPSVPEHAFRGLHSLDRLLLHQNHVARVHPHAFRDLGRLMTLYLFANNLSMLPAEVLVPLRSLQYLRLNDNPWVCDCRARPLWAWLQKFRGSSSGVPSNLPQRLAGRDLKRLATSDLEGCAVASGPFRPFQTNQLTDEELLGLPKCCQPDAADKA
Description: as §1
(§2) The calculated IC50 for Nogo66 for 7E11 and 1H2 were 400 nM and 60 nM, respectively. The data from ELISAs monitoring mAb-mediated inhibition of binding of the three ligands to Nogo receptor-1 are summarized in Table 6.
(§3) We also performed ELISA binding assays using the Fab-phage 14D5.

OM-gp + sNogoR344-Fc = target: T3, OM-gp + sNogoR344-Fc (Rattus norvegicus, UniProt Q99M75, A303T/C287S/C43R/E284G/T53A); assay: mAb/Fab inhibition of OM-gp binding to sNogoR344-Fc (ELISA)
T3 construct: amino acid residues 26-344 of rat Nogo receptor-1; made in house
T3 sequence (Q99M75 26-344 C43R/T53A/E284G/C287S/A303T): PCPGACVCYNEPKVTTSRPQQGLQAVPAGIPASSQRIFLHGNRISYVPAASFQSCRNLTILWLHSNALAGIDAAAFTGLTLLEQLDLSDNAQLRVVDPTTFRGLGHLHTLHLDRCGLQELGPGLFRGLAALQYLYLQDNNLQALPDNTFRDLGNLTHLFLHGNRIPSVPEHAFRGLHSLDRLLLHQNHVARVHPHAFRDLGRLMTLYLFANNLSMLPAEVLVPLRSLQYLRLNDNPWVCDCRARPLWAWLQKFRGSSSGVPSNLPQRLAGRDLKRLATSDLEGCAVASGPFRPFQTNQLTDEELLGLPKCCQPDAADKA
Description: as §1, §2, §3

human NgR1 = target: T4, human NgR1 (Homo sapiens, UniProt Q9BZR6); assay: Antibody binding to human Nogo receptor-1
T4 sequence (Q9BZR6 27-447): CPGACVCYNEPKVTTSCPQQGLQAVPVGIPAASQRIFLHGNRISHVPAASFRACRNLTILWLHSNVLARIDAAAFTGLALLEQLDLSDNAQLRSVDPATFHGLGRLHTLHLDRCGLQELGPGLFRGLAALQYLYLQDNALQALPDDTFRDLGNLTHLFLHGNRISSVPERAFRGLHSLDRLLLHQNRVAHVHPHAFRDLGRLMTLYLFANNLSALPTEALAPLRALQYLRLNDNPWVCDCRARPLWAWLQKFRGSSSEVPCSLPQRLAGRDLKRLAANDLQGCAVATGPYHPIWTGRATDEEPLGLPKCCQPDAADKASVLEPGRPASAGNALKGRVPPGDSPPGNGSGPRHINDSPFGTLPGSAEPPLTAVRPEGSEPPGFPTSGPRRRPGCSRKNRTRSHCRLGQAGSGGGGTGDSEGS

DRG neurons = assay: Neurite outgrowth assay on CNS myelin (Example 5); assay type: cell-based; settings: P3-4 rat DRG; 15 μg/ml mAb 7E11
Description: To test the ability of the monoclonal and Fab-phage antibodies produced above to lessen the inhibitory effect of CNS myelin on neurons, Lab-Tek® culture slides (4 wells) were coated with 0.1 mg/ml poly-D-lysine (Sigma®). CNS myelin or PBS was spotted as 3 μl drops. Fluorescent microspheres (Polysciences) were added to the myelin/PBS to allow later identification of the drops (Grandpre et al, Nature 403, 2000). Lab-Tek® slides were then rinsed and coated with 10 μg/ml laminin (Gibco™). Dorsal root ganglions (DRG's) from P3-4 Sprague Dawley rat pups were dissociated with 1 mg/ml collagenase type 1 (Worthington), triturated with fire-polished Pasteur pipettes pre-plated to enrich in neuronal cells and finally plated at 23,000 cells/well on the pre-coated Lab-Tek® culture slides. The culture medium was F12 containing 5% heat inactivated donor horse serum, 5% heat inactivated fetal bovine serum and 50 ng/ml MNGF and incubated at 37 °C and 5% CO2 for 6 hours. Fifteen μg/ml of mAb 7E11 was added immediately after plating.
Slides were fixed for 20 minutes with 4% paraformaldehyde containing 20% sucrose and stained for the neuronal marker anti beta-III-tubulin (Covance TUJ1) diluted 1:500. […] 5× digital images were acquired with OpenLab™ software and analysed by using the MetaMorph® software for quantification of neurite outgrowth.

human Nogo receptor-1 = target: T5, human Nogo receptor-1 (Homo sapiens, UniProt Q9BZR6); assay: Immunohistochemical staining of fixed and live cells expressing human Nogo receptor-1; assay type: cell-based
T5 construct: expressed in transfected cells; host or cells: COS-7 or 293 cells
T5 sequence (Q9BZR6 27-447): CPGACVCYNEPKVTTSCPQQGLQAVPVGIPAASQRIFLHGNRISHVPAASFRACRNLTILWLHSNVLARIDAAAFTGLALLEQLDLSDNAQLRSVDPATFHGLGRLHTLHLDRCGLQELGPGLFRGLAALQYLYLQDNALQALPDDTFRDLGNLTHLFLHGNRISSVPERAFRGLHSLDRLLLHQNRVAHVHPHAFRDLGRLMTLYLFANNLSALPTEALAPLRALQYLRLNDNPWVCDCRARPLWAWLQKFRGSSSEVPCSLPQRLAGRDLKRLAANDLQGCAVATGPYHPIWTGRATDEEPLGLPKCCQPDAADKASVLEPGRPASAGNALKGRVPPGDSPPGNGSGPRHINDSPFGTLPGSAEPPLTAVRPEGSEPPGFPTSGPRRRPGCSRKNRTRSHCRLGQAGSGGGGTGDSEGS
Description: To further characterize the binding properties of anti-Nogo receptor-1 mAbs produced as described in Example 1, we compared binding to both fixed and live COS-7 or 293 cells expressing rat or human Nogo receptor-1.
Nogo receptor-1 transfected and non-transfected cells were plated in 8-well Lab-Tek® culture slides, fixed with 4% paraformaldehyde for 15 minutes, blocked with 10% normal goat serum, 0.1% Triton X-100 in PBS for 1 hour. Mab 7E11 was added at 15 μg/ml and 1.5 μg/ml in blocking solution and incubated for 2 hours at room temperature; Alexa®-conjugated secondary antibody anti-mouse (Molecular Probes) was incubated at a 1:300 dilution in blocking solution for 1 hour; DAPI was added at 5 μg/ml to the secondary antibody to label all nuclei.
Transfected and non-transfected cells were plated in 8 well Lab-Tek® culture slides, blocked with FACS buffer (containing 4% donor horse serum) for 30 minutes at 4° C., incubated with 7E11 at 15 μg/ml and 1.5 μg/ml in FACS buffer for 1 hour at 4° C., rinsed and incubated with secondary antibody anti-mouse-Alexa® (1:300 in FACS buffer) for 30 minutes at 4° C.

B1: 7E11: murine monoclonal anti-Nogo receptor-1 antibody, IgG1 kappa, ATCC PTA-4587; immunogen rat Nogo receptor-1 residues 110-125 (antibody, V domains shown)
VH: VQLQESGAELVMPGASVKMSCKASGYTFTDYWMHWVKQRPGQGLEWIGAIDPSDSYSSYNQNFKGKATLTVDGSSSTAYMQLSSLTSEDSAVYYCARRITEAGAWFAYWGQGTTVT
VL: DVVMTQTPLSLPVSLGDQASISCRSSQSLVHSNGNTYLHWYLQKPGQSPKLLIYKVSNRFSGVPDRFSGSGSGTDFTLKISRVDAEDLGVYFCSQSTHVPFTFGGGTKLEIKRADAAPTVSISHH
- IC50 [1]: 400 nM
- inhibition of binding of Nogo66 to sNogoR344-Fc (Nogo66 + sNogoR344-Fc): inhibited binding
- EC50 (Nogo66 + sNogoR344-Fc; curve-fit analysis): 1700 nM
- inhibition of binding of OM-gp to sNogoR344-Fc (OM-gp + sNogoR344-Fc): inhibited binding
- EC50 (OM-gp + sNogoR344-Fc; curve-fit analysis): 150 nM
- binding to human NgR1 (human NgR1): bound; also recorded: binds well
- protection from myelin-mediated inhibition of neurite outgrowth (DRG neurons): protected
- binding to cells expressing human Nogo receptor-1 (human Nogo receptor-1): bound both fixed and live cells
